Assay results reported in patent publication US20240317834A1, “COMPOSITIONS AND METHODS FOR NEUROLOGICAL DISEASES” (CODA BIOTHERAPEUTICS, INC., priority 2020, published 2024).

Columns and labels:
Lenti-X 293T cells = assay: YFP fluorescence quenching anion reporter plate reader assay of engineered receptors stimulated with acetylcholine or a non-native ligand; type: cell-based; details: for percent quench of YFP fluorescence, 30 nM TC-6683: TC-6683 30 nM; for percent quench of YFP fluorescence, 300 nM TC-6683: TC-6683 300 nM; for percent quench of YFP fluorescence, 3 uM TC-6683: TC-6683 3 uM; for percent quench of YFP fluorescence, 30 uM TC-6683: TC-6683 30 uM; for percent quench of YFP fluorescence, 100 uM TC-6683: TC-6683 100 uM; for percent quench of YFP fluorescence, 100 uM ach: acetylcholine 100 uM; for percent quench of YFP fluorescence, 300 uM ach: acetylcholine 300 uM; for percent quench of YFP fluorescence, 500 uM ach: acetylcholine 500 uM; for percent quench of YFP fluorescence, 1 mM ach: acetylcholine 1 mM; for percent quench of YFP fluorescence, 3 mM ach: acetylcholine 3 mM; for percent quench of YFP fluorescence, 10 mM ach: acetylcholine 10 mM
Summary of the method: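 YFP quench was followed for about 1 min 43 s after ligand delivered in iodide-based ECS, pH 7.2. Values are end-of-read fluorescence (last 10 s) divided by the pre-ligand baseline (15 s). Cells were LX293T, transfected with receptor DNA a day before the assay.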

rat DRG neurons = assay: Rheobase shift and evoked action potentials in rat DRG neurons (current clamp); type: cell-based; details: for Rheobase Shift; Rat DRG Neurons, Baseline: no ligand
Summary of the method: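 Rat DRG neurons expressing engineered receptors, whole-cell current clamp at RT. ECS at pH 7.3; K-gluconate internal at pH 7.2. 500 ms steps from −200 to 700 pA with and without ligand. Rheobase taken as the smallest depolarising step that fires an action potential; input resistance from negative steps.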

B1: CODA1054: engineered chimeric LGIC receptor, R101M, L131F in SEQ ID NO: 33 (protein)
chain: MRCSPGGVWLALAASLLHVSLQGEFQRKLYKELVKNYNPLERPVANDSQPLTVYFSLSLLQIMDVDEKNQVLTTNIWLQMSWTDHYLQWNVSEYPGVKTVMFPDGQIWKPDILLYNSADERFDATFHTNVFVNSSGHCQYLPPGIFKSSCPMDLKNFPMDVQTCKLKFGSWSYGGWSLDLQMQEADISGYIPNGEWDLVGIPGKRSERFYECCKEPYPDVTFTVTMRRRMGYYLIQMYIPSLLIVILSWISFWINMDAAPARVGLGITTVLTMTTQSSGSRASLPKVSYVKAIDIWMAVCLLFVFSALLEYAAVNFVSRQHKELLRFRRKRRHHKSPMLNLFQEDEAGEGRFNFSAYGMGPACLQAKDGISVKGANNSNTTNPPPAPSKSPEEMRKLFIQRAKKIDKISRIGFPMAFLIFNMFYWIIYKIVRREDVHNQ
modifications: synthetic sequence of chimeric LGIC
YFP fluorescence quenching using CNL001 (Lenti-X 293T cells; 1 nM CNL001, first column): 21.932% | YFP fluorescence quenching using CNL001 (Lenti-X 293T cells; 1 nM CNL001, second column): 39.689% | YFP fluorescence quenching using TC-5619/Bradanicline (Lenti-X 293T cells; 1 nM brd): 6.609% | YFP fluorescence quenching using TC-5619/Bradanicline (Lenti-X 293T cells; 3 nM brd): −7.635% | YFP fluorescence quenching using Varenicline (Lenti-X 293T cells; 3 nM var, first column): 34.923 | YFP fluorescence quenching using Varenicline (Lenti-X 293T cells; 3 nM var, second column): 28.944 | YFP fluorescence quenching using CNL001 (Lenti-X 293T cells; 10 nM CNL001, first column): 54.192% | YFP fluorescence quenching using CNL001 (Lenti-X 293T cells; 10 nM CNL001, second column): 64.111% | YFP fluorescence quenching using TC-5619/Bradanicline (Lenti-X 293T cells; 10 nM brd): 4.459% | YFP fluorescence quenching using TC-5619/Bradanicline (Lenti-X 293T cells; 30 nM brd): 69.782% | YFP fluorescence quenching using Varenicline (Lenti-X 293T cells; 30 nM var, first column): 42.214 | YFP fluorescence quenching using Varenicline (Lenti-X 293T cells; 30 nM var, second column): 43.015 | YFP fluorescence quenching using CNL001 (Lenti-X 293T cells; 50 nM CNL001, first column): 71.409% | YFP fluorescence quenching using CNL001 (Lenti-X 293T cells; 50 nM CNL001, second column): 70.989% | YFP fluorescence quenching using ABT-126 (Lenti-X 293T cells; 50 nM abt): −19.54% | YFP fluorescence quenching using CNL001 (Lenti-X 293T cells; 100 nM CNL001, first column): 74.148% | YFP fluorescence quenching using CNL001 (Lenti-X 293T cells; 100 nM CNL001, second column): 71.722% | YFP fluorescence quenching using ABT-126 (Lenti-X 293T cells; 100 nM abt): −18.28% | YFP fluorescence quenching using TC-5619/Bradanicline (Lenti-X 293T cells; 100 nM brd): 77.633% | YFP fluorescence quenching using ABT-126 (Lenti-X 293T cells; 300 nM abt): −16.87% | YFP fluorescence quenching using TC-5619/Bradanicline (Lenti-X 293T cells; 300 nM brd): 72.933% | YFP fluorescence quenching using Varenicline (Lenti-X 293T cells; 300 nM var, first column): 47.059 | YFP fluorescence quenching using Varenicline (Lenti-X 293T cells; 300 nM var, second column): 52.768 | YFP fluorescence quenching using Varenicline (Lenti-X 293T cells; 500 nM var, first column): 59.542 | YFP fluorescence quenching using Varenicline (Lenti-X 293T cells; 500 nM var, second column): 62.641 | YFP fluorescence quenching using CNL001 (Lenti-X 293T cells; 1 uM CNL001, first column): 71.378% | YFP fluorescence quenching using CNL001 (Lenti-X 293T cells; 1 uM CNL001, second column): 71.411% | YFP fluorescence quenching using ABT-126 (Lenti-X 293T cells; 1 uM abt): −11.77% | YFP fluorescence quenching using Varenicline (Lenti-X 293T cells; 1 uM var, first column): 71.449 | YFP fluorescence quenching using Varenicline (Lenti-X 293T cells; 1 uM var, second column): 69.145 | percent quench of YFP fluorescence, 30 nM TC-6683 (Lenti-X 293T cells): −22.996% | percent quench of YFP fluorescence, 300 nM TC-6683 (Lenti-X 293T cells): −27.055% | percent quench of YFP fluorescence, 3 uM TC-6683 (Lenti-X 293T cells): −18.611% | percent quench of YFP fluorescence, 30 uM TC-6683 (Lenti-X 293T cells): −13.879% | percent quench of YFP fluorescence, 100 uM TC-6683 (Lenti-X 293T cells): −21.521% | percent quench of YFP fluorescence, 10 uM ach (Lenti-X 293T cells; acetylcholine 10 uM): −3.98% | percent quench of YFP fluorescence, 100 uM ach (Lenti-X 293T cells): −10.34% | percent quench of YFP fluorescence, 300 uM ach (Lenti-X 293T cells): −10.25% | percent quench of YFP fluorescence, 500 uM ach (Lenti-X 293T cells): −11.46% | percent quench of YFP fluorescence, 1 mM ach (Lenti-X 293T cells): 1.77% | percent quench of YFP fluorescence, 3 mM ach (Lenti-X 293T cells): 36.81% | percent quench of YFP fluorescence, 10 mM ach (Lenti-X 293T cells): 74.02% | Rheobase Shift; Rat DRG Neurons, +TC-5619 @ EC90 (rat DRG neurons): 673 ± 27 pA | Rheobase Shift; Rat DRG Neurons, Baseline (rat DRG neurons): 105 ± 13 pA

B2: CODA1055: engineered chimeric LGIC receptor, R101W, Y115E, Y210W in SEQ ID NO: 33 (protein)
chain: MRCSPGGVWLALAASLLHVSLQGEFQRKLYKELVKNYNPLERPVANDSQPLTVYFSLSLLQIMDVDEKNQVLTTNIWLQMSWTDHYLQWNVSEYPGVKTVWFPDGQIWKPDILLENSADERFDATFHTNVLVNSSGHCQYLPPGIFKSSCPMDLKNFPMDVQTCKLKFGSWSYGGWSLDLQMQEADISGYIPNGEWDLVGIPGKRSERFWECCKEPYPDVTFTVTMRRRMGYYLIQMYIPSLLIVILSWISFWINMDAAPARVGLGITTVLTMTTQSSGSRASLPKVSYVKAIDIWMAVCLLFVFSALLEYAAVNFVSRQHKELLRFRRKRRHHKSPMLNLFQEDEAGEGRFNFSAYGMGPACLQAKDGISVKGANNSNTTNPPPAPSKSPEEMRKLFIQRAKKIDKISRIGFPMAFLIFNMFYWIIYKIVRREDVHNQ
modifications: synthetic sequence of chimeric LGIC
YFP fluorescence quenching using CNL001 (Lenti-X 293T cells; 1 nM CNL001, first column): −12.889% | YFP fluorescence quenching using CNL001 (Lenti-X 293T cells; 1 nM CNL001, second column): −13.295% | YFP fluorescence quenching using TC-5619/Bradanicline (Lenti-X 293T cells; 1 nM brd): −8.113% | YFP fluorescence quenching using TC-5619/Bradanicline (Lenti-X 293T cells; 3 nM brd): −11.136% | YFP fluorescence quenching using Varenicline (Lenti-X 293T cells; 3 nM var, first column): 0.468 | YFP fluorescence quenching using Varenicline (Lenti-X 293T cells; 3 nM var, second column): −10.015 | YFP fluorescence quenching using CNL001 (Lenti-X 293T cells; 10 nM CNL001, first column): −10.401% | YFP fluorescence quenching using CNL001 (Lenti-X 293T cells; 10 nM CNL001, second column): −7.981% | YFP fluorescence quenching using TC-5619/Bradanicline (Lenti-X 293T cells; 10 nM brd): 38.755% | YFP fluorescence quenching using TC-5619/Bradanicline (Lenti-X 293T cells; 30 nM brd): 39.111% | YFP fluorescence quenching using Varenicline (Lenti-X 293T cells; 30 nM var, first column): −15.532 | YFP fluorescence quenching using Varenicline (Lenti-X 293T cells; 30 nM var, second column): −14.462 | YFP fluorescence quenching using CNL001 (Lenti-X 293T cells; 50 nM CNL001, first column): −1.972% | YFP fluorescence quenching using CNL001 (Lenti-X 293T cells; 50 nM CNL001, second column): −1.661% | YFP fluorescence quenching using ABT-126 (Lenti-X 293T cells; 50 nM abt): −21.36% | YFP fluorescence quenching using CNL001 (Lenti-X 293T cells; 100 nM CNL001, first column): 0.277% | YFP fluorescence quenching using CNL001 (Lenti-X 293T cells; 100 nM CNL001, second column): 4.325% | YFP fluorescence quenching using ABT-126 (Lenti-X 293T cells; 100 nM abt): −22.28% | YFP fluorescence quenching using TC-5619/Bradanicline (Lenti-X 293T cells; 100 nM brd): 61.378% | YFP fluorescence quenching using ABT-126 (Lenti-X 293T cells; 300 nM abt): −14.63% | YFP fluorescence quenching using TC-5619/Bradanicline (Lenti-X 293T cells; 300 nM brd): 52.398% | YFP fluorescence quenching using Varenicline (Lenti-X 293T cells; 300 nM var, first column): −17.027 | YFP fluorescence quenching using Varenicline (Lenti-X 293T cells; 300 nM var, second column): −15.59 | YFP fluorescence quenching using Varenicline (Lenti-X 293T cells; 500 nM var, first column): −13.343 | YFP fluorescence quenching using Varenicline (Lenti-X 293T cells; 500 nM var, second column): −10.702 | YFP fluorescence quenching using CNL001 (Lenti-X 293T cells; 1 uM CNL001, first column): 2.88% | YFP fluorescence quenching using CNL001 (Lenti-X 293T cells; 1 uM CNL001, second column): 3.259% | YFP fluorescence quenching using ABT-126 (Lenti-X 293T cells; 1 uM abt): −7.34% | YFP fluorescence quenching using Varenicline (Lenti-X 293T cells; 1 uM var, first column): −6.604 | YFP fluorescence quenching using Varenicline (Lenti-X 293T cells; 1 uM var, second column): −7.612 | percent quench of YFP fluorescence, 30 nM TC-6683 (Lenti-X 293T cells): −30.056% | percent quench of YFP fluorescence, 300 nM TC-6683 (Lenti-X 293T cells): −30.801% | percent quench of YFP fluorescence, 3 uM TC-6683 (Lenti-X 293T cells): −25.558% | percent quench of YFP fluorescence, 30 uM TC-6683 (Lenti-X 293T cells): −18.295% | percent quench of YFP fluorescence, 100 uM TC-6683 (Lenti-X 293T cells): −17.554% | percent quench of YFP fluorescence, 100 uM ach (Lenti-X 293T cells): −15.63% | percent quench of YFP fluorescence, 300 uM ach (Lenti-X 293T cells): −12.05% | percent quench of YFP fluorescence, 500 uM ach (Lenti-X 293T cells): −12.87% | percent quench of YFP fluorescence, 1 mM ach (Lenti-X 293T cells): −11.55% | percent quench of YFP fluorescence, 3 mM ach (Lenti-X 293T cells): 12.68% | percent quench of YFP fluorescence, 10 mM ach (Lenti-X 293T cells): 37.58% | Rheobase Shift; Rat DRG Neurons, +TC-5619 @ EC90 (rat DRG neurons): 562 ± 35 pA | Rheobase Shift; Rat DRG Neurons, Baseline (rat DRG neurons): 83 ± 7 pA
